Assay results taken from patent US6608174B1, “Radiolabeled vasoactive intestinal peptide analogs for diagnosis and radiotherapy” (Dabur Research Foundation, priority 2000, dated 2003).
Square brackets hold non-standard residues; d marks the D form. Ends that are not written are not given here. dPhe(4-Cl) = N[C@H](Cc1ccc(Cl)cc1)C(=O)O; Aib = CC(C)(N)C(=O)O

How the values were obtained:
VIP receptors = experiment: Displacement assay using 125I labeled VIP (10-28) fragment on human tumor cell lines; conditions: inhibition of 125I labeled VIP (10-28) fragment binding
Protocol: Peptides of the invention were assayed for biological activity in homogeneous competition binding assays using ^125I labeled VIP peptide (SEQ ID NO:1) and in heterogeneous displacement assays using either ^125I labeled VIP (10-28) fragment (Tyr-Thr-Arg-Leu-Arg-Lys-Gln-Met-Ala-Val-Lys-Lys-Tyr-Leu-Asn-Ser-Ile-Leu-Asn-NH2) (SEQ ID NO: 12) or ^125I labeled VIP (SEQ ID NO:1). The assays were performed on a variety of human tumor cell lines.
In the practice of these methods, the peptide was radioiodinated using the iodogen method. Briefly, 5 μg of the peptide in 10 μl of 50 mM PBS (pH 7.5), an appropriate amount of the radioisotope and 50 μg-100 μg iodogen were incubated at room temperature for 15-30 min with occasional mixing. Radioiodinated peptide was purified from unincorporated radioactive iodine by purification on a Sep Pak C18 cartridge, essentially following the same procedure as described for technetium labeling.
Displacement assays were performed at 4-8° C. Briefly, 50,000 cells were plated per well of a 24 well plate and allowed to adhere overnight. Before the assay, the cells were washed twice with ice cold Binding buffer (25 mM HEPES, 10 mM MgCl2 and 1% BSA in RPMI 1640 medium). The cells were incubated for 2-3hrs with an appropriate concentration (0.1-10 nM) of ^125I labeled VIP (10-28) fragment (SEQ ID NO:12) in the presence and absence of the cold ligand (SEQ ID NO: 2) (1 nM-10 μM). The non specific binding was ascertained using 10 μM of VIP. After incubation, the cells were washed thrice with the binding buffer to remove the unbound peptide. The cells were lysed and counts were measured in a Gamma counter. From a comparison of the extent of binding in the presence or absence of the unlabeled peptide, a concentration was determined corresponding to inhibition of ^125I labeled VIP (10-28) fragment binding by 50% (termed the IC50) (TABLE III).
The following tumor cell lines were assayed using the above described displacement assay: HT29 (human colorectal adenocarcinoma); PTC (human primary tumor cells adenocarcinoma); KB (human squamous cell carcinoma); 4451 (human squamous cell carcinoma); L132 (human lung carcinoma); A549 (human lung carcinoma); HBL100 (human breast carcinoma) and PA1 (human ovarian carcinoma).
Cells were grown in RPMI 1640 supplemented with 10% fetal calf serum, glutamine and antibiotics using standard cell culture techniques (see Animal Cell Culture: A Practical Approach, Freshney, ed, IRL press: Oxford, UK, 1992).

[1] = molecular target: high affinity (nM range), low surface expression receptor on human tumor cells (VIP receptor) (human); experiment: maximal binding, 125I-SEQ ID NO:2 on HT29 cells
[2] = molecular target: low affinity (µM range), high surface expression receptor on human tumor cells (VIP receptor) (human); experiment: maximal binding, 125I-SEQ ID NO:2 on HT29 cells
[3] = molecular target: VIP receptors on human tumor cell lines (human); experiment: displacement of 125I labeled VIP (10-28) fragment on PA1 cells
[4] = molecular target: VIP receptors on human tumor cell lines (human); experiment: displacement of 125I labeled VIP (10-28) fragment on PTC cells
[5] = molecular target: VIP receptors on human tumor cell lines (human); experiment: displacement of 125I labeled VIP (10-28) fragment on A549 cells
[6] = molecular target: high affinity (nM range), low surface expression receptor on human tumor cells (VIP receptor) (human); experiment: homologous radioligand competition, 125I-SEQ ID NO:2 on KB cells
[7] = molecular target: low affinity (µM range), high surface expression receptor on human tumor cells (VIP receptor) (human); experiment: as above
[8] = molecular target: high affinity (nM range), low surface expression receptor on human tumor cells (VIP receptor) (human); experiment: homologous radioligand competition, 125I-SEQ ID NO:2 on 4451 cells
[9] = molecular target: low affinity (µM range), high surface expression receptor on human tumor cells (VIP receptor) (human); experiment: as above
[10] = molecular target: high affinity (nM range), low surface expression receptor on human tumor cells (VIP receptor) (human); experiment: homologous radioligand competition, 125I-SEQ ID NO:2 on L132 cells
[11] = molecular target: low affinity (µM range), high surface expression receptor on human tumor cells (VIP receptor) (human); experiment: as above
[12] = molecular target: high affinity (nM range), low surface expression receptor on human tumor cells (VIP receptor) (human); experiment: homologous radioligand competition, 125I-SEQ ID NO:2 on HBL 100 cells
[13] = molecular target: low affinity (µM range), high surface expression receptor on human tumor cells (VIP receptor) (human); experiment: as above

## His-Ser-Asp-Aib-Val-4-Cl-D-Phe-Thr-Asp-Asn-Tyr-Thr-Arg-Leu-Arg-Lys-Gln-Leu-Ala-Val-Lys-Lys-Tyr-Leu-Asn-Ser-Ile-Leu-Asn-NH2 (HSD[Aib]V[dPhe(4-Cl)]TDNYTRLRKQLAVKKYLNSILN-NH2; N-terminus assumed; SMILES CC[C@H](C)[C@H](NC(=O)[C@H](CO)NC(=O)[C@H](CC(N)=O)NC(=O)[C@H](CC(C)C)NC(=O)[C@H](Cc1ccc(O)cc1)NC(=O)[C@H](CCCCN)NC(=O)[C@H](CCCCN)NC(=O)[C@@H](NC(=O)[C@H](C)NC(=O)[C@H](CC(C)C)NC(=O)[C@H](CCC(N)=O)NC(=O)[C@H](CCCCN)NC(=O)[C@H](CCCNC(=N)N)NC(=O)[C@H](CC(C)C)NC(=O)[C@H](CCCNC(=N)N)NC(=O)[C@@H](NC(=O)[C@H](Cc1ccc(O)cc1)NC(=O)[C@H](CC(N)=O)NC(=O)[C@H](CC(=O)O)NC(=O)[C@@H](NC(=O)[C@@H](Cc1ccc(Cl)cc1)NC(=O)[C@@H](NC(=O)C(C)(C)NC(=O)[C@H](CC(=O)O)NC(=O)[C@H](CO)NC(=O)[C@@H](N)Cc1c[nH]cn1)C(C)C)[C@@H](C)O)[C@@H](C)O)C(C)C)C(=O)N[C@@H](CC(C)C)C(=O)N[C@@H](CC(N)=O)C(N)=O) [SEQ ID NO:2, VIP receptor antagonist, preferred peptide (Xxx = Aib)]
VIP receptors; 4451 cells
  IC50: 0.383 nM
VIP receptors; A549 cells
  IC50: 0.275 nM
VIP receptors; HBL 100 cells
  IC50: 0.236 nM
VIP receptors; HT29 cells
  IC50: 0.22 nM
VIP receptors; KB cells
  IC50: 0.35 nM
VIP receptors; L132 cells
  IC50: 0.228 nM
VIP receptors; PA1 cells
  IC50: 0.31 nM
VIP receptors; PTC cells
  IC50: 0.132 nM

B1: VIP analog His-Ser-Asp-Aib-Val-4-Cl-D-Phe-Thr-Asp-Asn-Tyr-Thr-Arg-Leu-Arg-Lys-Gln-Leu-Ala-Val-Lys-Lys-Tyr-Leu-Asn-Ser-Ile-Leu-Asn-NH2 (SEQ ID NO: 2) (peptide)
peptide: HSD[Aib]V[dPhe(4-Cl)]TDNYTRLRKQLAVKKYLNSILN-NH2
modifications: also: 125I-labelled form (iodogen) used as tracer
[1]
  Bmax1: 367 pM
[2]
  Bmax2: 67.2 nM
[3]
  IC50: 0.31 nM
[4]
  IC50: 0.132 nM
[5]
  IC50: 0.275 nM
[6]
  Kd: 4.2 nM
[7]
  Kd: 1840 nM
[8]
  Kd: 4.48 nM
[9]
  Kd: 1910 nM
[10]
  Kd: 2.6 nM
[11]
  Kd: 1030 nM
[12]
  Kd: 2.13 nM
[13]
  Kd: 1600 nM
